The results in this text go back to the supplement of paper PMC11780869.

The subject of this data set is Bacillus subtilis. Put plainly: cleaved RNA product abundance (RNA/gDNA barcode ratio) relative to median wild-type variant (ratio to wild type); higher = more accumulation of the downstream cleavage product. As to conditions: cleavage site: cggR-gapA (positions -7 to +36 mutated). An outline of the steps:
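Oligos with a 9% error rate were used to build barcoded, mutagenized RNase Y cleavage-site windows within truncated aprE or tetM reporter mRNAs, which were integrated into the B. subtilis chromosome. Cultures were grown in LB at 37°C between OD600 0.0003 and 0.3. Cleaved RNA was gel-selected, reverse transcribed and barcode-sequenced, as were genomic DNA barcodes, and UMIs were collapsed. Cleaved product abundance is the scaled RNA:gDNA barcode ratio, with the median construct carrying the unmutated site as reference.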

Setting [1] is: experiment (reporter, strain, medium): exp 4a: truncated aprE reporter, strain BJT201 with 2% xylose (RNase J1 expressed).
[2] abbreviates: experiment (reporter, strain, medium): exp 2b: truncated aprE reporter, strain BJT200.

“ACAGACGAAGGAGCCGCAAAGAAGTGATTAAGGAATGAATAATCCCTCAATATAAATATCTCTCACTTATTTAAA”: the “cleaved RNA product abundance” value under setting [1] was determined as 0.115.

On to “ACAGACGAAGGAGCCGCAAAGAAGTGATTAAGGCATGAATAATCCCTCAATATAAATATCTCTCACTTATTTAAA”, for which the “cleaved RNA product abundance” value under setting [2] was found to be 0.11.

Consider “ACAGACGAAGGAGCCGCAAAGAAGTGATTAAGGGACGAATAATCCCTCAATATAAATATCTCTCACTTATTTAAA”, for which the “cleaved RNA product abundance” value under setting [1] stood at 0.322.

“ACAGACGAAGGAGCCGCAAAGAAGTGATTAAGGGATAAATAATCCCTCAATATAAATATCTCTCACTTATTTAAA”: the “cleaved RNA product abundance” value under setting [1] was found to be 0.246.

Turning to “ACAGACGAAGGAGCCGCAAAGAAGTGATTAAGGGATGAAAAATCCCTCAATATAAATATCTCTCACTTATTTAAA”, the “cleaved RNA product abundance” value under setting [1] was determined as 0.399.

For “ACAGACGAAGGAGCCGCAAAGAAGTGATTAAGGGATGAATAACCCCTCAATATAAATATCTCTCACTTATTTAAA”, the “cleaved RNA product abundance” value under setting [1] turned out to be 0.163.

Regarding “ACAGACGAAGGAGCCGCAAAGAAGTGATTAAGGGATGAATAATACCTCAATATAAATATCTCTCACTTATTTAAA”, the “cleaved RNA product abundance” value came out at 0.105 under setting [2] and 0.0889 under setting [1].

For the sequence “ACAGACGAAGGAGCCGCAAAGAAGTGATTAAGGGATGAATAATCCATCAATATAAATATCTCTCACTTATTTAAA”, the “cleaved RNA product abundance” value is 0.27 under setting [2] and 0.257 under setting [1].

With “ACAGACGAAGGAGCCGCAAAGAAGTGATTAAGGGATGAATAATCCCACAATATAAATATCTCTCACTTATTTAAA”, the “cleaved RNA product abundance” value under setting [1] came to 0.226.

“ACAGACGAAGGAGCCGCAAAGAAGTGATTAAGGGATGAATAATCCCGCAATATAAATATCTCTCACTTATTTAAA”: under setting [1], the “cleaved RNA product abundance” value stood at 0.124.

As for “ACAGACGAAGGAGCCGCAAAGAAGTGATTAAGGGATGAATAATCCCTAAATATAAATATCTCTCACTTATTTAAA”, the “cleaved RNA product abundance” value under setting [1] worked out at 0.388.

“ACAGACGAAGGAGCCGCAAAGAAGTGATTAAGGGATGAATAATCCCTCAAAATAAATATCTCTCACTTATTTAAA”: the “cleaved RNA product abundance” value under setting [1] came to 0.258.

As to “ACAGACGAAGGAGCCGCAAAGAAGTGATTAAGGGATGAATAATCCCTCAACATAAATATCTCTCACTTATTTAAA”, the “cleaved RNA product abundance” value under setting [2] worked out at 0.293.

Regarding “ACAGACGAAGGAGCCGCAAAGAAGTGATTAAGGGATGAATAATCCCTCAATATAAAAATCTCTCACTTATTTAAA”, under setting [1], the “cleaved RNA product abundance” value is 0.728.

Take “ACAGACGAAGGAGCCGCAAAGAAGTGATTAAGGGATGAATAATCCCTCAATATAAATAACTCTCACTTATTTAAA”: under setting [1], the “cleaved RNA product abundance” value stood at 0.522.

For the sequence “ACAGACGAAGGAGCCGCAAAGAAGTGATTAAGGGATGAATAATCCCTCAATATAAATATCTCTCACTTATTTAAA”, the “cleaved RNA product abundance” value runs as follows: under setting [2], 0.318; under setting [1], 0.391; (experiment (reporter, strain, medium): exp 6: tetM reporter, strain 168) 0.274.

For the sequence “ACAGACGAAGGAGCCGCAAAGAAGTGATTAAGGGATGAATAATCCCTCACTATAAATATCTCTCACTTATTTAAA”, the “cleaved RNA product abundance” value under setting [1] came to 0.0759.

In the case of “ACAGACGAAGGAGCCGCAAAGAAGTGATTAAGGGATGAATAATCCCTCTATATAAATATCTCTCACTTATTTAAA”, under setting [1], the “cleaved RNA product abundance” value turned out to be 0.377.

In the case of “ACAGACGAAGGAGCCGCAAAGAAGTGATTAAGGGATGAATAATCCCTTAATATAAATATCTCTCACTTATTTAAA”, under setting [1], the “cleaved RNA product abundance” value stood at 0.74.

In the case of “ACAGACGAAGGAGCCGCAAAGAAGTGATTAAGGGATGAATAATCCTTCAATATAAATATCTCTCACTTATTTAAA”, the “cleaved RNA product abundance” value is, setting by setting: under setting [2], 0.337; under setting [1], 0.342.

For “ACAGACGAAGGAGCCGCAAAGAAGTGATTAAGGGATGAATAATCGCTCAATATAAATATCTCTCACTTATTTAAA”, under setting [1], the “cleaved RNA product abundance” value was 0.0548.

Take “ACAGACGAAGGAGCCGCAAAGAAGTGATTAAGGGATGAATAATCTCTCAATATAAATATCTCTCACTTATTTAAA”: the “cleaved RNA product abundance” value under setting [1] came out at 0.306.

Consider “ACAGACGAAGGAGCCGCAAAGAAGTGATTAAGGGATGAATACTCCCTCAATATAAATATCTCTCACTTATTTAAA”, for which the “cleaved RNA product abundance” value under setting [1] is 0.354.

Consider “ACAGACGAAGGAGCCGCAAAGAAGTGATTAAGGGATGAATAGTCCCTCAATATAAATATCTCTCACTTATTTAAA”, for which the “cleaved RNA product abundance” value is, setting by setting: under setting [2], 0.184; under setting [1], 0.274.

As for “ACAGACGAAGGAGCCGCAAAGAAGTGATTAAGGGATGAATTATCCCTCAATATAAATATCTCTCACTTATTTAAA”, the “cleaved RNA product abundance” value under setting [1] came to 0.366.

Take “ACAGACGAAGGAGCCGCAAAGAAGTGATTAAGGGATGAGTAATCCCTCAATATAAATATCTCTCACTTATTTAAA”: the “cleaved RNA product abundance” value under setting [1] came to 0.285.

As to “ACAGACGAAGGAGCCGCAAAGAAGTGATTAAGGGATGCATAATCCCTCAATATAAATATCTCTCACTTATTTAAA”, under setting [1], the “cleaved RNA product abundance” value stood at 0.51.

Regarding “ACAGACGAAGGAGCCGCAAAGAAGTGATTAAGGGATTAATAATCCCTCAATATAAATATCTCTCACTTATTTAAA”, the “cleaved RNA product abundance” value runs as follows: under setting [2], 0.459; under setting [1], 0.325.

Regarding “ACAGACGAAGGAGCCGCAAAGAAGTGATTAAGGGCTGAATAATCCCTCAATATAAATATCTCTCACTTATTTAAA”, the “cleaved RNA product abundance” value under setting [1] stood at 0.309.

For “ACAGACGAAGGAGCCGCAAAGAAGTGATTAAGGGTTGAATAATCCCTCAATATAAATATCTCTCACTTATTTAAA”, the “cleaved RNA product abundance” value under setting [2] was determined as 0.15 and the “cleaved RNA product abundance” value under setting [1] was found to be 0.263.

“ACAGACGAAGGAGCCGCAAAGAAGTGATTAAGGTATGAATAATCCCTCAATATAAATATCTCTCACTTATTTAAA”: the “cleaved RNA product abundance” value amounted to 0.0827 under setting [2] and 0.113 under setting [1].

As to “ACAGACGAAGGAGCCGCAAAGAAGTGATTAAGTGATGAATAATCCCTCAATATAAATATCTCTCACTTATTTAAA”, the “cleaved RNA product abundance” value is, setting by setting: under setting [2], 0.114; under setting [1], 0.0876.

As to “ACAGACGAAGGAGCCGCAAAGAAGTGATTAATGGATGAATAATCCCTCAATATAAATATCTCTCACTTATTTAAA”, the “cleaved RNA product abundance” value reads like this: under setting [2], 0.0996; under setting [1], 0.108.

“ACAGACGAAGGAGCCGCAAAGAAGTGATTACGGGATGAATAATCCCTCAATATAAATATCTCTCACTTATTTAAA”: the “cleaved RNA product abundance” value under setting [1] turned out to be 0.396.

In the case of “ACAGACGAAGGAGCCGCAAAGAAGTGATTTAGGGATGAATAATCCCTCAATATAAATATCTCTCACTTATTTAAA”, the “cleaved RNA product abundance” value under setting [1] turned out to be 0.386.

“ACAGACGAAGGAGCCGCAAAGAAGTTAAAAAAGGATGAATAATCCCTCAATATAAATATCTCTCACTTATTTAAA”: the “cleaved RNA product abundance” value under setting [1] was determined as 0.227.

“ACAGACGAAGGAGCCGCAAAGAAGTTAAAAAGGGATGAATAATCCCTCAATATAAATATCTCTCACTTATTTAAA”: the “cleaved RNA product abundance” value stood at 0.268 under setting [2] and 0.392 under setting [1].

Turning to “ACAGACGAAGGAGCCGCAAAGAAGTTAATAAAGGATGAATAATCCCTCAATATAAATATCTCTCACTTATTTAAA”, the “cleaved RNA product abundance” value under setting [2] came to 0.143 and the “cleaved RNA product abundance” value under setting [1] stood at 0.215.

For the sequence “ACAGACGAAGGAGCCGCAAAGAAGTTAATAACGGATGAATAATCCCTCAATATAAATATCTCTCACTTATTTAAA”, under setting [1], the “cleaved RNA product abundance” value amounted to 0.177.

For the sequence “ACAGACGAAGGAGCCGCAAAGAAGTTAATAAGAGATGAATAATCCCTCAATATAAATATCTCTCACTTATTTAAA”, under setting [1], the “cleaved RNA product abundance” value was determined as 0.133.

Regarding “ACAGACGAAGGAGCCGCAAAGAAGTTAATAAGCGATGAATAATCCCTCAATATAAATATCTCTCACTTATTTAAA”, the “cleaved RNA product abundance” value under setting [2] is 0.0808 and the “cleaved RNA product abundance” value under setting [1] came to 0.104.

For the sequence “ACAGACGAAGGAGCCGCAAAGAAGTTAATAAGGAATGAATAATCCCTCAATATAAATATCTCTCACTTATTTAAA”, the “cleaved RNA product abundance” value under setting [2] stood at 0.103 and the “cleaved RNA product abundance” value under setting [1] came to 0.165.

Turning to “ACAGACGAAGGAGCCGCAAAGAAGTTAATAAGGCATGAATAATCCCTCAATATAAATATCTCTCACTTATTTAAA”, the “cleaved RNA product abundance” value reads like this: under setting [2], 0.0718; under setting [1], 0.104.

For the sequence “ACAGACGAAGGAGCCGCAAAGAAGTTAATAAGGGAAGAATAATCCCTCAATATAAATATCTCTCACTTATTTAAA”, the “cleaved RNA product abundance” value amounted to 0.135 under setting [2] and 0.17 under setting [1].

Take “ACAGACGAAGGAGCCGCAAAGAAGTTAATAAGGGACGAATAATCCCTCAATATAAATATCTCTCACTTATTTAAA”: the “cleaved RNA product abundance” value amounted to 0.154 under setting [2] and 0.164 under setting [1].

As for “ACAGACGAAGGAGCCGCAAAGAAGTTAATAAGGGATAAATAATCCCTCAATATAAATATCTCTCACTTATTTAAA”, the “cleaved RNA product abundance” value runs as follows: under setting [2], 0.253; under setting [1], 0.382.

With “ACAGACGAAGGAGCCGCAAAGAAGTTAATAAGGGATCAATAATCCCTCAATATAAATATCTCTCACTTATTTAAA”, the “cleaved RNA product abundance” value stood at 0.282 under setting [2] and 0.316 under setting [1].

Turning to “ACAGACGAAGGAGCCGCAAAGAAGTTAATAAGGGATGAAAAATCCCTCAATATAAATATCTCTCACTTATTTAAA”, the “cleaved RNA product abundance” value under setting [1] was found to be 0.293.

For “ACAGACGAAGGAGCCGCAAAGAAGTTAATAAGGGATGAACAATCCCTCAATATAAATATCTCTCACTTATTTAAA”, under setting [2], the “cleaved RNA product abundance” value was determined as 0.251.

For the sequence “ACAGACGAAGGAGCCGCAAAGAAGTTAATAAGGGATGAAGAATCCCTCAATATAAATATCTCTCACTTATTTAAA”, the “cleaved RNA product abundance” value under setting [1] is 0.278.

“ACAGACGAAGGAGCCGCAAAGAAGTTAATAAGGGATGAATAAACCCTCAATATAAATATCTCTCACTTATTTAAA”: the “cleaved RNA product abundance” value stood at 0.167 under setting [2] and 0.177 under setting [1].

For the sequence “ACAGACGAAGGAGCCGCAAAGAAGTTAATAAGGGATGAATAACCCCTCAATATAAATATCTCTCACTTATTTAAA”, the “cleaved RNA product abundance” value under setting [1] worked out at 0.192.

As for “ACAGACGAAGGAGCCGCAAAGAAGTTAATAAGGGATGAATAAGCCCTCAATATAAATATCTCTCACTTATTTAAA”, the “cleaved RNA product abundance” value under setting [1] was determined as 0.197.
